Values quoted from earlier work in article PMC3951123.

Legend:
Experiment in all cases: SPR
[1] = target: Syk linker B peptide SykLB-pYpY (Mus musculus) (UniProt P48025)
[2] = target: Syk linker B peptide SykLB-pYY (Mus musculus) (UniProt P48025)
[3] = target: Syk linker B peptide SykLB-YpY (Mus musculus) (UniProt P48025)

Vav1 SH2 (from UniProt P15498)
Kd [1]: 7.4 µM | Kd [2]: 14.6 µM | Kd [3]: 71 µM
